In assay [1] the target is SARS-CoV-2 S1 Subunit Monomer B.1.1.529 Omicron. Put plainly: SPR. Background: In SPR one partner is held on a chip, and binding of the other changes the refractive index at the surface.
Assay [2] addresses SARS-CoV-2 S Trimer B.1.1.529 Omicron. The assay can be described thus: SPR.
Assay [3] has as its target Antibody 178-09_His B.1.1.7 (27080) (SARS-CoV-2, UniProt P0DTC2 14-685). Put plainly: FACS. On the technique in general: In flow cytometry, cells or beads pass a laser one at a time.
Assay [4] has as its target Antibody 178-08_His 501.V2 (27079) (SARS-CoV-2, UniProt P0DTC2 14-685). Put plainly: FACS.
Assay [5] deals with Antibody 178-10_His CA_W152C_L452R_D614G (27081) (SARS-CoV-2, UniProt P0DTC2 14-685). Put plainly: FACS.
The target in assay [6] is 178-6. The assay can be described thus: competition.
The target in assay [7] is SARS-CoV-2 S1 Subunit Monomer B.1.617.2 Delta. The assay can be described thus: SPR.
Assay [8] concerns the target 178-6. Put plainly: binding competition.

Among the data in US20230265217A1 (published 2023) are Kd and IC50 values, retold here.

Numbering of substitutions follows the chain as printed. “And” between values parts separate entries of the source, which are not always exact repeats. Equal values may be shown once.

B1: Variant 6A-3 (VHH)
VHH: EVQLVESGGGLVQPGGSLRLSCAASGFTFSPSWMGWFRQAPGKEREFVATINEYGGRNYADSVKGRFTISADNSKNTAYLQMNSLKPEDTAVYYCARVDRDFDYWGQGTLVTVSS
Consider B1, for which the Kd is 3.5 nM in assay [1] and below 0.04 nM in assay [2].

B2: 7-26 (VHH)
VHH: EVQLVESGGGLVQPGGSLRLSCAASGSTFSINAMGWFRQAPGKEREFVAGITSSGGYTNYADSVKGRFTISADNSKNTAYLQMNSLKPEDTAVYYCAADGVPEYSDYASGPVWGQGTLVTVSS
B2: the IC50 in assay [3] is 1.42 nM; in assay [4], 0.979 nM; in assay [5] it was 0.56 nM and 0.634 nM; in assay [6] it was 0.138 nM.

B3: 7-37 (VHH)
VHH: B2 VHH with F29L, S53R, G56S, Y57V
As to B3, the IC50 amounted to 2.82 nM in assay [3], 2.1 nM in assay [4] and 7.51 nM in assay [6].

B4: 3-31 (VHH)
VHH: B2 VHH
For the molecule B4, the results for the IC50 in assay [4], in assay [5] and in assay [6] were 325 nM, 0.629 nM and 1.25 nM, respectively.

B5: Variant 3-31 (VHH)
VHH: B2 VHH
Turning to B5, the Kd in assay [7] amounted to 1.1 nM; in assay [2] it was 2.1 nM.

B6: 5A-3 (VHH)
VHH: EVQLVESGGGLVQPGGSLRLSCAASGSIFSIDVMGWFRQAPGKEREFVAGISWSGDSTLYADSVKGRFTISADNSKNTAYLQMNSLKPEDTAVYYCAAFDGYTGSDWGQGTLVTVSS
For the molecule B6, the half-inhibitory concentration (IC50) in assay [3] is 0.891 nM; in assay [4], 0.587 nM; in assay [8] it was 0.904 nM.

B7: 7-14 (VHH)
VHH: EVQLVESGGGLVQPGGSLRLSCAASGSTFSINAMGWFRQAPGKEREFVAGISRGGTTNYADSVKGRFTISADNSKNTAYLQMNSLKPEDTAVYYCAADGVPEYSDYASGPVWGQGTLVTVSS
B7: the figures for the concentration for half-maximal inhibition (IC50) in assay [3], in assay [4] and in assay [6] were 2.52 nM, 4.42 nM and 0.682 nM, respectively.

The Kd is the concentration at which binding is half-saturated. Read a high Kd as a looser complex. The term IC50 denotes the point on the concentration scale where inhibition reaches its midpoint. Low readings indicate higher potency, high ones lower potency.
